As usually defined, the EC50 is the midpoint of the concentration-response curve. High values mean a less potent agent, low ones a more potent agent.

For assay [1], the target named is PD-L1 on CHO-PD-L1 cells (human) (UniProt Q9NZQ7). In words: flow cytometry cell binding; CHO-PD-L1 cells.
Assay [2] concerns the target CD47 on Jurkat cells (UniProt Q08722). Description: flow cytometry cell binding; Jurkat cells. (In general: A flow cytometer gives signals particle by particle.)

Chain of PD-L1 on CHO-PD-L1 cells (human) (Q9NZQ7 19-290): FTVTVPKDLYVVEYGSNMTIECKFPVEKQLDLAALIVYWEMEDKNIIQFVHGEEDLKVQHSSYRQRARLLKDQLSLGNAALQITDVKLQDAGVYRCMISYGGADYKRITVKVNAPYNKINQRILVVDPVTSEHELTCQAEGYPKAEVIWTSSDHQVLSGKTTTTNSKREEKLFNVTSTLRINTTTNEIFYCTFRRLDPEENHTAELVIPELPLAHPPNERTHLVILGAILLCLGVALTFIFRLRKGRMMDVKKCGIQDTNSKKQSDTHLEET

In the case of Atezolizumab, the EC50 in assay [1] turned out to be 0.027 nM. Take IMM2505: the EC50 in assay [2] was found to be 0.913 nM; in assay [1], 0.0471 nM.

The values are drawn from US20230083670A1.
